Molecular target: B cell antigen receptor (BCR; surface IgM) on DT40-ASF cells (chicken)
Experiment: cell-based or functional assay

recovery of cell proliferation of doxycycline-treated DT40-ASF cells: > 1 µg/mL
Substance: antibody M4 (mouse-derived anti-chicken IgM monoclonal antibody)

From patent US20080227123A1
